Data as given in paper PMC6293271, “Bactericidal/Permeability-Increasing Protein Is an Enhancer of Bacterial Lipoprotein Recognition” (Frontiers in Immunology, 2018).
Ends that are not written are not given here.

Key:
Details in all cases: both partners purified
[1] = target: T1, recombinant bactericidal/permeability-increasing protein (rBPI) (human, UniProt P17213 32-487, labelled with NT647 (NHS labelling kit) in the MST experiments only); test: MST
T1 construct: also called rBPI NT647
T1 sequence (looked up): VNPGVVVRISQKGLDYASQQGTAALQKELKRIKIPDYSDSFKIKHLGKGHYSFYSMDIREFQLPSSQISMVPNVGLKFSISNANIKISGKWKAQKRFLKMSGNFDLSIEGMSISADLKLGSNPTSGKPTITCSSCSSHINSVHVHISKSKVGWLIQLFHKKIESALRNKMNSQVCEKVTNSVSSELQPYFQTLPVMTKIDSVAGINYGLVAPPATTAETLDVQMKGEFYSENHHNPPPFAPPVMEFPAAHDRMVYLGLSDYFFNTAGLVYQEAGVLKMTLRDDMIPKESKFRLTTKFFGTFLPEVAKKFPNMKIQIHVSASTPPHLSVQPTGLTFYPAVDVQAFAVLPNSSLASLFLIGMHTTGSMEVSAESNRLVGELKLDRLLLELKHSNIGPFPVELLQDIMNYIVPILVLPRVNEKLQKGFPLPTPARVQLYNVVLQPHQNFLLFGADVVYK

[2] = target: T1, recombinant …; test: ELISA; BPI microtiter binding assay, competition: 20 nM BPI pre-incubated 30 min with increasing lipopeptide, loaded on LPS biotin (2 μg/ml) on streptavidin plates, 1 h 37°C; 150 mM NaCl, 50 mM HEPES, 1 g/l BSA; bound BPI detected with anti-human BPI antibody
[3] = target: T1, recombinant …; test: NanoDSF (thermal shift)

B1: (R)-Pam3CSK4 (peptide)
peptide: CSKKKK
notes: also called tri-acylated bLP; source: synthetic peptide; bought: EMC Microcollections
[1]
  Kd: 162 ± 23.5 nM

B2: PamCSK4 (peptide)
peptide: CSKKKK
modifications: not fully specified
notes: also called mono-acylated lipopeptide; source: synthetic peptide; bought: EMC Microcollections
[2]
  binding result: binds

B3: (R)-Pam2CSK4 (peptide)
peptide: CSKKKK
modifications: not fully specified (residue 1); printed as (R)-Pam2CSK4
notes: also called di-acylated lipopeptide; source: synthetic peptide; bought: EMC Microcollections
[3]
  binding result: binds
